The source of these data is patent US20250020645, “A4B1 BINDING APTAMERS” (University of Washington, published 2025).

Data set [1] addresses Integrin alpha4beta7, recombinant heterodimer (Homo sapiens, UniProt P13612;P26010 P13612:34-977,P26010:20-723). The data set is described as follows: BLI; negative control aptamer, 100 nM protein. Conditions: tags: His-tag; ACROBiosystems IT7-H52W4; label: biotin. On the procedure: (§1) Bio-layer interferometry. BLI studies were performed on an Octet RED96 instrument (Sartorius of Göttingen, Germany) using streptavidin biosensors (Sartorius) as previously described (Cheng et al. (2022) J Am Chem Soc, 144, 13851-64). Briefly, wash buffer supplemented with 1% BSA, 0.1 mg/mL yeast tRNA, 0.1 mg/mL salmon sperm DNA, and 0.01% Tween-20 (Sigma) was used as the sample buffer for all steps. All steps were performed at 25° C. with sample agitation at 1000 rpm. Biosensors were allowed to equilibrate in buffer for at least 10 min before loading. For sensor loading, 50 nM biotinylated aptamers were loaded until a 0.5 nm threshold before performing rinse and baseline steps in buffer alone for 100 s each. Afterwards, aptamer-loaded sensors were associated with His-tagged human α4β1 (IT1-H52W1, ACROBiosystems of Beijing, China) or His-tagged human α4β7 (IT7-H52W4, ACROBiosystems) at concentrations and times indicated in the figures and captions. Lastly, sensors were transferred to wells containing buffer alone for dissociation. […] Kinetic constants were calculated for datasets with several analyte concentrations by conducting a global fit of the association and dissociation curves to a 1:1 ligand binding model. The quality of each fit was evaluated using R2 and χ2 values, which are listed in Table 6 for the appropriate datasets along with the calculated kinetic constants. […]
A general note: BLI is a label-free optical method that tracks binding on a fibre tip over time.

Data set [2] concerns the target T1, Integrin alpha4beta1 (VLA-4, CD49d/CD29), recombinant heterodimer (Homo sapiens, UniProt P13612;P05556 P13612:34-977,P05556:21-728). The data set is described as follows: BLI; negative control aptamer, 100 nM protein. The settings on record: tags: His-tag; ACROBiosystems IT1-H52W1; label: biotin. As to the method: as §1
Data set [3] has as its target T2, Integrin alpha4beta1 on Jurkat cells (clone E6-1) (Homo sapiens, UniProt P13612;P05556 P13612:34-1032,P05556:21-798). Put plainly: competition; 50% displacement of 20 nM Cy5-HR7A1 on Jurkat cells. The settings on record: tags: endogenous, ATCC cell line; label: Cy5. As to the method:
(§2) Aptamer binding studies. While suspension H9, Jurkat, Raji, and K562 cells were harvested normally, adherent B16F10 cells were non-enzymatically dissociated with Versene (Gibco) prior to binding studies to prevent possible enzymatic cleavage of the α4β1 integrin that would affect aptamer binding. Once harvested, cells (2×10⁵) were pre-stained with Zombie Violet in DPBS for 15 min at room temperature, washed once with wash buffer supplemented with 1% BSA, and incubated with 100 μL folded FAM-labeled ssDNA pools or FAM/Cy5-labeled individual aptamers for 30 min at 4° C. in binding buffer at the indicated concentrations. For antibody co-staining, antibodies were added to the incubation with aptamers. For competitive binding studies, unique aptamers with different fluorescent labels were co-incubated on cells at different concentrations. Cells were then washed twice with 200 μL wash buffer 1% BSA to remove excess staining reagent. If biotinylated aptamers were used for primary staining, cells received a secondary stain with 100 μL fluorescently labeled streptavidin in wash buffer 1% BSA for 20 min at 4° C. and then washed twice as before. Lastly, stained cells were lightly fixed in 200 μL wash buffer 1% BSA with 0.1-0.5% perfluoroalkoxy alkane (PFA) before immediate analysis via flow cytometry as described above. […]

For data set [4], the target named is T2, Integrin alpha4beta1 on Jurkat cells …. The data set is described as follows: competition; 50% displacement of 20 nM Cy5-Sgc4f on Jurkat cells. The settings on record: tags: endogenous, ATCC cell line; label: biotin, FAM or Cy5; motif on top of a stem formed by flanking constant regions (predicted). On the procedure:
as §2

For data set [5], the target named is Integrin alpha4beta1 on B16F10 melanoma cells (Mus musculus, UniProt Q00651;P09055 Q00651:41-1039,P09055:21-798). The data set is described as follows: flow; apparent, 4 C. Conditions: tags: endogenous, ATCC cell line; label: biotin, FAM or Cy5; motif on top of a stem formed by flanking constant regions (predicted). On the procedure: as §2, with “reagent.” for “reagent. If biotinylated aptamers were used for primary staining, cells received a secondary stain with 100 μL fluorescently labeled streptavidin in wash buffer 1% BSA for 20 min at 4° C. and then washed twice as before. Lastly, stained cells were lightly fixed in 200 μL wash buffer 1% BSA with 0.1-0.5% perfluoroalkoxy alkane (PFA) before immediate analysis via flow cytometry as described above.”
FIGS. 16A, 16B illustrate that HR7A1 binds mouse α4β1. […] (16B) Flow cytometry binding curves of Cy5-labeled CD8.A3t, HR7A1, and Sgc4f to B16F10 cells, as determined by MFI. […] KD values were calculated by averaging the individual regression values of the independent experiments. […]

For data set [6], the target named is T1, Integrin alpha4beta1 (VLA-4, …). Put plainly: BLI; 25 C, immobilised biotin-aptamer, DPBS Ca/Mg + 5 mM MgCl2 + BSA/tRNA/ssDNA. The settings on record: tags: His-tag; ACROBiosystems IT1-H52W1; label: biotin, FAM or Cy5; motif on top of a stem formed by flanking constant regions (predicted). As to the method: (§3) Bio-layer interferometry. BLI studies were performed on an Octet RED96 instrument (Sartorius of Göttingen, Germany) using streptavidin biosensors (Sartorius) as previously described (Cheng et al. (2022) J Am Chem Soc, 144, 13851-64). Briefly, wash buffer supplemented with 1% BSA, 0.1 mg/mL yeast tRNA, 0.1 mg/mL salmon sperm DNA, and 0.01% Tween-20 (Sigma) was used as the sample buffer for all steps. All steps were performed at 25° C. with sample agitation at 1000 rpm. Biosensors were allowed to equilibrate in buffer for at least 10 min before loading. For sensor loading, 50 nM biotinylated aptamers were loaded until a 0.5 nm threshold before performing rinse and baseline steps in buffer alone for 100 s each. […] Kinetic constants were calculated for datasets with several analyte concentrations by conducting a global fit of the association and dissociation curves to a 1:1 ligand binding model. The quality of each fit was evaluated using R2 and χ2 values, which are listed in Table 6 for the appropriate datasets along with the calculated kinetic constants.
(§4) Table 6 lists BLI measured affinity kinetics of immobilized HR7A1, HR7A1.Tr1, and HR7A1.Tr2 aptamer binding to recombinant α4β1 protein. […] Values were calculated by performing a global fit of the binding curve data in FIG. 2B to a 1:1 binding model. […] The goodness of fit was evaluated by a reduced chi-square (χ2) and a R2 value approaching 1.

Data set [7] shares this target. Put plainly: BLI; 25 C, immobilised biotin-aptamer. The settings on record: tags: His-tag; ACROBiosystems IT1-H52W1; label: biotin, FAM or Cy5. On the procedure: as §3, §4
The target of data set [8] is T2, Integrin alpha4beta1 on Jurkat cells …. Put plainly: competition; 50% block of 100 nM VCAM-1 binding to Jurkat cells. Conditions: tags: endogenous, ATCC cell line; label: biotin, FAM or Cy5. On the procedure:
CS1 peptide and VCAM-1 competition. For competition studies involving the CS1 peptide, a Tris-based wash buffer comprised of TBS (Fisher) supplemented with 4.5 g/L glucose, 5.5 mM MgCl², 0.9 mM CaCl², and 10 mM MnCl² was used instead of the normal DPBS-based wash buffer described above. Mn²⁺ has previously been described to support α4β1 binding to the fibronectin CS1 peptide (Masumoto and Hemler. (1993) Journal of Biological Chemistry, 268, 228-234), and as MnCl² precipitates in DPBS, a Tris-based wash buffer was thus required. Peptide stocks were prepared fresh in the Tris-based wash buffer at 20 mM prior to the competition studies and the exact concentration was measured using a QuantTag Biotin Quantification Kit (Vector Labs of Newark, CA). Live/dead and aptamer staining were carried out as described above, except cells were pre-blocked with varying concentrations of the SCR-b or CS1-b peptide in Tris-based wash buffer supplemented with 1% BSA (w/v) and 0.1 mg/mL yeast tRNA for 30 min at room temperature prior to spiking in aptamer and incubating for another 30 min at 4° C. As Tris can neutralize PFA, cells were resuspended in regular wash buffer 1% BSA with 0.5% PFA after washing before analyzing on the flow cytometer. […]

Data set [9] shares this target. The data set is described as follows: flow; apparent, 4 C. The settings on record: tags: endogenous, ATCC cell line. On the procedure: (§5) Binding assay: Jurkat cells were washed with DPBS and incubated with Zombie Violet (1:500, 10⁷ cells/mL, BioLegend) in DPBS for live/dead staining for 15 min at room temperature. After live/dead staining, cells were washed with aptamer washed buffer supplemented with 1% BSA to quench the remaining dye and aliquoted in a 96-well plate at 1-2e5 cells/well. For aptamer staining, cells were incubated with annealed aptamers at the indicated concentrations in 100 μL binding buffer (aptamer wash buffer supplemented with 1% BSA and 0.1 mg/ml yeast RNA) for 20-30 min at 4° C. For binding analysis at different temperatures, aptamers (diluted in binding buffer) and cells were separately incubated at the indicated temperatures for 20 min for equilibration. The equilibrated aptamer solutions were then added to the cells and allowed to incubate for 20-30 min. After incubation, cells were washed 2 times with 200 μL aptamer wash buffer supplemented with 1% BSA, resuspended in 200 μL aptamer wash buffer supplemented with 1% BSA and 0.2% PFA, and analyzed on an Attune NxT cytometer.

Data set [10] has the same target. Put plainly: flow; apparent, 4 C; better retained binding at 20 and 37 C than parent. The settings on record: tags: endogenous, ATCC cell line. On the procedure: as §5

T1 sequence (P13612 34-977, chain 1 of 2): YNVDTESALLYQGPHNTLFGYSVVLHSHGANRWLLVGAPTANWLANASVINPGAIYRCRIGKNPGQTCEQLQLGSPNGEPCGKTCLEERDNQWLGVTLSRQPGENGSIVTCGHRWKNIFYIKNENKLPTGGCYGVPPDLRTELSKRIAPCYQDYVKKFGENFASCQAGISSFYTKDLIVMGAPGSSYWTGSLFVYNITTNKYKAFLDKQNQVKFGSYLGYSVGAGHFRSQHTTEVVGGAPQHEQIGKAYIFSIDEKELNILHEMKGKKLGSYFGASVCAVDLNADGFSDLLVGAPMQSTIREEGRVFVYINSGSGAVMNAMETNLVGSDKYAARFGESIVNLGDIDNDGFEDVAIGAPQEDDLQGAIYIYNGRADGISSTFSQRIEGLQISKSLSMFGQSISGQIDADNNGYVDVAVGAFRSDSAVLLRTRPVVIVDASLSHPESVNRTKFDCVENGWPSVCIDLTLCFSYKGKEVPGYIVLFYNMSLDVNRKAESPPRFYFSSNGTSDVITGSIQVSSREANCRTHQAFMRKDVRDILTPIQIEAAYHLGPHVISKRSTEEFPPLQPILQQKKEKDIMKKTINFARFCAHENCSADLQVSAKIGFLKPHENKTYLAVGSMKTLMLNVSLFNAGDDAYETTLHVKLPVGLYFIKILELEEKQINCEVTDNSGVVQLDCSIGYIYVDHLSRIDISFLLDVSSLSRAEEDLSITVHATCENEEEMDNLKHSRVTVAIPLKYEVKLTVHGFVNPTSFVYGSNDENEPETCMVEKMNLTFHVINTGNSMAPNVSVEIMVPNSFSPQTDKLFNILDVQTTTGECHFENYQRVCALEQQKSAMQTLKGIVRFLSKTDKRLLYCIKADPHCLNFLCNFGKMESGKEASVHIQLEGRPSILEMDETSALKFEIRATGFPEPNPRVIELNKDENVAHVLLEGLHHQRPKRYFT
T1 sequence (P05556 21-728, chain 2 of 2): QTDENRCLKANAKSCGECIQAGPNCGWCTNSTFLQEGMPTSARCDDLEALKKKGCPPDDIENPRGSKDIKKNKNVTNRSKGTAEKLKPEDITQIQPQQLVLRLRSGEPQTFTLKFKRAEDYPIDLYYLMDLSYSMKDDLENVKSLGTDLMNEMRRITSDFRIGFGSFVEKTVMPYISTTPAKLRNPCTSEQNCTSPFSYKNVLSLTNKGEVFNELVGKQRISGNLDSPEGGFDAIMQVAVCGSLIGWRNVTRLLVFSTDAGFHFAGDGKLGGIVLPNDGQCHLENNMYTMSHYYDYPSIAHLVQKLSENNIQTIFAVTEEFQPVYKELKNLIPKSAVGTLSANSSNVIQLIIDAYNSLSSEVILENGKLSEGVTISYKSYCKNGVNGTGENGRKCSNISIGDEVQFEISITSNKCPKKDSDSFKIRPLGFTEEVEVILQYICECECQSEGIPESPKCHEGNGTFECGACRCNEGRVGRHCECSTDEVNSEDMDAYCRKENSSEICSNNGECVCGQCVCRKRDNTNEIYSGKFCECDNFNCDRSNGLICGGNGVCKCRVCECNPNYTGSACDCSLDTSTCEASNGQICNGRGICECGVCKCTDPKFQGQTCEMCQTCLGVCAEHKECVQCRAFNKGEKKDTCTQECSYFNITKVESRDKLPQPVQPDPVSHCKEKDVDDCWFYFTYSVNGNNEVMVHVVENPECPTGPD
T2 sequence (P13612 34-1032, chain 1 of 2): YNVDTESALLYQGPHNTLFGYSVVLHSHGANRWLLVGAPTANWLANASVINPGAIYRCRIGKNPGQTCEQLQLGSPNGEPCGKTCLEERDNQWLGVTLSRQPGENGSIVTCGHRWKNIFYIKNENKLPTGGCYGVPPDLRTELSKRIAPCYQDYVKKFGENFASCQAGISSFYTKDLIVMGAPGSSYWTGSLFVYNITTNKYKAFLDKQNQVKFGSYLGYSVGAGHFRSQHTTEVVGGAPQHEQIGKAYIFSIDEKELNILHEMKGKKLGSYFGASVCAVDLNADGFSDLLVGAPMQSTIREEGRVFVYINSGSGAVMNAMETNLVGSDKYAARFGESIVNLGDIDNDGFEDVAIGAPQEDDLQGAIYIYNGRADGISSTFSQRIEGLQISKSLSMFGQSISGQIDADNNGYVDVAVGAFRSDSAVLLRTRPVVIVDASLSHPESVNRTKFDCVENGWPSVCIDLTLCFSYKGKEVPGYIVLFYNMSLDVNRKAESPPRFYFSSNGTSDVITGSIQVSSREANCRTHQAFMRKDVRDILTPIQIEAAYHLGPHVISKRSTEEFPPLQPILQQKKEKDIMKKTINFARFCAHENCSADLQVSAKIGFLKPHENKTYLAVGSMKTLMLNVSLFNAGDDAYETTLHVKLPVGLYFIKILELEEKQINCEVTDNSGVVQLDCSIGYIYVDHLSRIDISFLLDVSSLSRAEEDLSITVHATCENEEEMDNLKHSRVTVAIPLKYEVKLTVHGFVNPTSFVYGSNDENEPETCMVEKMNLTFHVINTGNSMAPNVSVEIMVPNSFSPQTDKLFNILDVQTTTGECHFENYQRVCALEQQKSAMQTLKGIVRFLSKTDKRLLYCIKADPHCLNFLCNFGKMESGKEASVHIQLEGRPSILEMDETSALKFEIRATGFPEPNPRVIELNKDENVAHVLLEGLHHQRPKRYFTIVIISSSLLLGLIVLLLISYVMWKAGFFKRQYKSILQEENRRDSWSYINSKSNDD
T2 sequence (P05556 21-798, chain 2 of 2): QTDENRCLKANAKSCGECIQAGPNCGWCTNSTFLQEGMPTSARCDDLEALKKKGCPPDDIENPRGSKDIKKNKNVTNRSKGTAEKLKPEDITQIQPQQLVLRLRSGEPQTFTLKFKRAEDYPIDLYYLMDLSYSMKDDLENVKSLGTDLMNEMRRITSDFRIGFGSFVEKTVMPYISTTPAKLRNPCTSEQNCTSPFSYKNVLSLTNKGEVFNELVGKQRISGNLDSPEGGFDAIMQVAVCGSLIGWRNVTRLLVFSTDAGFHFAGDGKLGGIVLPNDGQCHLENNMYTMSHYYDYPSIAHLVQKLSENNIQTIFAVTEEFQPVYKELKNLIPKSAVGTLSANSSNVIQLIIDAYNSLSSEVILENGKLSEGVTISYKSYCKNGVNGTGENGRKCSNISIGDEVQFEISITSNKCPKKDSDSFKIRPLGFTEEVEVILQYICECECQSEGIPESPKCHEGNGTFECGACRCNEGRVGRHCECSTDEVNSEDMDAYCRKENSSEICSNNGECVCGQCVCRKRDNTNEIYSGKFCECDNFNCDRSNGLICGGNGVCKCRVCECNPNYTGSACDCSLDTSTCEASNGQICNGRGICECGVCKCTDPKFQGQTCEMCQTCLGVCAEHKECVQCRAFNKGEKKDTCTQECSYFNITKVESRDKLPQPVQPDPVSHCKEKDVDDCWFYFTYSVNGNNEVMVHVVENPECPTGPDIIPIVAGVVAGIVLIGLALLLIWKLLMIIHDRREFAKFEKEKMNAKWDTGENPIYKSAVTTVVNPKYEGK
Chain of Integrin alpha4beta7, recombinant heterodimer (P13612 34-977, chain 1 of 2): as the sequence (P13612 34-977, chain 1 of 2) above
Chain of Integrin alpha4beta7, recombinant heterodimer (P26010 20-723, chain 2 of 2): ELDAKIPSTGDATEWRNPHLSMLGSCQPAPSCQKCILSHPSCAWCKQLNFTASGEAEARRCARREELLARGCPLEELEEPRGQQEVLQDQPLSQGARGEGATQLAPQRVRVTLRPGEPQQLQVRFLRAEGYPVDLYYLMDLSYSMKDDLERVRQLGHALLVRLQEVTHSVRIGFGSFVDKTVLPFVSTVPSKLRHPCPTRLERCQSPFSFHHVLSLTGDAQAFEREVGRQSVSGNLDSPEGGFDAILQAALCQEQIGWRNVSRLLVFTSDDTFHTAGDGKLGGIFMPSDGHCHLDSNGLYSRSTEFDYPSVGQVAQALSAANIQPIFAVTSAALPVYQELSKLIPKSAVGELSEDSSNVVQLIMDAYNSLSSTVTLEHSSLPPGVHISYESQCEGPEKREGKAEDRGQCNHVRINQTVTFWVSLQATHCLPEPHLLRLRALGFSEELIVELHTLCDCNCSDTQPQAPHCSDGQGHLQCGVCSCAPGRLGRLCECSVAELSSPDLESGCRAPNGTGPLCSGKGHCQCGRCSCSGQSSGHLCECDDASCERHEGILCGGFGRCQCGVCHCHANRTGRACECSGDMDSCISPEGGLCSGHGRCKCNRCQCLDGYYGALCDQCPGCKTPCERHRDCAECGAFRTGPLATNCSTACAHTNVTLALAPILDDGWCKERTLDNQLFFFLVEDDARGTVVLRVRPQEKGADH

B1: CD8.A3 (ssDNA)
DNA: ATCCAGAGTGACGCAGCAACAGAGGTGTAGAAGTACACGTGAACAAGCTTGAAATTGTCTCTGACAGAGGTGGACACGGTGGCTTAGT
For B1, the binding result in data set [1] and in data set [2] was “no binding” throughout.

B2: Sgc4f (ssDNA)
DNA: ATCACTTATAACGAGTGCGGATGCAAACGCCAGACAGGGGGACAGGAGATAAGTGA
On to B2, for which the IC50 in [3] is above 3 fold excess.

B3: HR7A1 (ssDNA)
DNA: ATCCAGAGTGACGCAGCAAACCTGACCTCCTTACTAGATGCAACCCGACTACTAACGTCGTAAGAGAGCCTGGACACGGTGGCTTAGT
Take B3: the IC50 in data set [4] was 0.3 fold excess. In addition, the Kd in [5] was 5.2 nM; in data set [6] it was 6.28 nM.

B4: HR7A1.Tr1 (ssDNA)
DNA: CAGCAAACCTGACCTCCTTACTAGATGCAACCCGACTACTAACGTCGTAAGAGAG
Take B4: the Kd in data set [7] turned out to be 7.74 nM.
Molecule CTCCTTACTAGATGCAACCCGACTACTAACGTCGTAAGAGAG (ssDNA) [HR7A1.Tr2] had an IC50 in data set [8] of 3 nM. In addition, the Kd in data set [7] amounted to 9.89 nM.
For the molecule CGCGCCGTACTAGATGCAACCCGACTACTAACGTCGTACGAGCGCG (ssDNA, PS at three terminal linkages of each end: C*G*C*GCC...GAGC*G*C*G) [HR7A1.Tr2.S2E2.PS3], the Kd in data set [9] is 3.2 nM.
Take CGCGCCGTACTAGATGCAACCCGACTACTAACGTCGTACGAGCGCG (ssDNA, PS at * : C*G*CGCCGTA*CTA*GA*TGCA*A*CCCGACTACTAA*CGTCGTACGAGCG*C*G) [HR7A1.Tr2.S2E2.PSA]: the Kd in data set [10] was determined as 9.6 nM.
